Experimental data reported in the nanobody polyreactivity screen of Harvey et al. (2022).

Experiment: yeast display, Sf9 membrane polyspecificity reagent, FACS + sequencing; frameworks hold sequencing errors
Summary of the method: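 In a synthetic yeast display library (Saccharomyces cerevisiae BJ5465), nanobody expression was induced with galactose for 36–48 hours. FACS gates were set low and high (top ~1%) using anti-HA fluorescence for expression and streptavidin fluorescence for binding of the Sf9 membrane reagent. Each polyreactivity label is drawn from the gate of origin.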

Question: For “QVQLVESGGGLVQAGGSLRLICAASGSTIVWNAMGWYRQAPGKERELVATITLSTGSTYYADSVKGRFTISRDNAKNTVYLQMNSLKPEDTAVYYCNTEIYVDIISVYGYWGQGTQVTVSS”, which “polyreactivity (PSR sort gate)” value is on record?
Answer: low polyreactivity

Question: With “QVQLVESGGGLVQAGGSLRLICAASGSTLIWNAMGWYRQAPGKEMELVAVISFSGVSTYYADSVKGRFTISRDNAKNTVYLQMNSLKPEDTAVYYCAAGRYLYNYYGYVDKYGYWGQGTQVTVSS” as the sequence, how does the “polyreactivity (PSR sort gate)” value read?
Answer: low polyreactivity

Question: For “QVQLVESGGGLVQAGGSLRLICAASGSTLVANAMGGYRQAPGKERELVAAISSGGITYYADSVKGRFTISRDNAKNTVYLQMNSLKPEDTAVYYCAKRGQGFQFGRDYWGQGTQVTVSS”, which “polyreactivity (PSR sort gate)” value is on record?
Answer: low polyreactivity

Question: With “QVQLVESGGGLVQAGGSLRLICAASGSTNYRYAMGWYRQAPGKERELVATISSTGARTNYADSVKGRFTISRDNAKNTDYLQMNSLKPEDTAVYYCAASAPYIYYWGQGTQVTVSS” as the sequence, how does the “polyreactivity (PSR sort gate)” value read?
Answer: high polyreactivity

Question: For “QVQLVESGGGLVQAGGSLRLICAASGSTSQNKAMGWYRPAPGKERELVAAITWSGDSTYYADSVKGRFTISRDNAKNTVYIQMNSLKPEDSAVYYCAAVSRFFSTYLYDYWGEGTQVTVSS”, which “polyreactivity (PSR sort gate)” value is on record?
Answer: low polyreactivity

Question: Which “polyreactivity (PSR sort gate)” value does the source give for “QVQLVESGGGLVQAGGSLRLICAASGTISSLNTMGWYRQAPVKERELVASITWSGGSTYADSVKGRFTISRDNAKNTVYLQMNSLKPEDTAVYYCAKGVWFSRRRYGYWGQGTQVTVSS” here?
Answer: high polyreactivity

Question: Which “polyreactivity (PSR sort gate)” value does the source give for “QVQLVESGGGLVQAGGSLRLICAASGVTFWSDAMGWYRQAPGKEREFVAAITTSAGRTNYADSVKGRFTISRDNAQNTVYLKMNSLKPEDTAVYYCAARSAYTGLGSGFDYWGQGTQVSVSS” here?
Answer: low polyreactivity

Question: With “QVQLVESGGGLVQAGGSLRLICAASGYTFSYYAMGWYRQAPGKERELVAAINYSGGRTYYADSVKGRFTISRDNAKNTVYLQMNSLKPDDTAVYYCAAYTRNGDYDYWGQGTQVTVSS” as the sequence, how does the “polyreactivity (PSR sort gate)” value read?
Answer: high polyreactivity

Question: Which “polyreactivity (PSR sort gate)” value does the source give for “QVQLVESGGGLVQAGGSLRLICADSGSTFTGNAMGWYRQAPGKERELVAAISRSGGRTYYADSVKGRFTISRDNAKNTVYLQMNSLKPEDTAVYYCNAVRNRGQRTAFDYWGQGTQVTVSS” here?
Answer: high polyreactivity

Question: Which “polyreactivity (PSR sort gate)” value does the source give for “QVQLVESGGGLVQAGGSLRLICASSGLNFVVYAMGRSRPAPGKERELVAAISSGGGSTYYADSVKGRFTISRDNAKNSVYLQMNSQKPEDTEVYYCNAVDKLYYWRYDYWRQGTQVTVSS” here?
Answer: low polyreactivity

Question: For “QVQLVESGGGLVQAGGSLRLICDASGRIFPWYTMGWYRQAPGKERELVAAITSGGNKDYADSVKGRFTISRDYAKNTVFLQMNSLKPEDTAVYYCAAGPDPLGEDYWGQGTQVTVSS”, which “polyreactivity (PSR sort gate)” value is on record?
Answer: low polyreactivity

Question: Which “polyreactivity (PSR sort gate)” value does the source give for “QVQLVESGGGLVQAGGSLRLICDASGRTFGPYVMRLYRQAPGKERELVASISSADSRYYADSVKGRFTISRDNAKNTVYLQMNSLKPEDTAVYYCAAPSVGYYDPTDFDYWGQGTQVTVSS” here?
Answer: low polyreactivity

Question: Which “polyreactivity (PSR sort gate)” value does the source give for “QVQLVESGGGLVQAGGSLRLICPASGRIFLTKAIGWYRPAPGIDRELVADISRGGSTYADSVKGRFTISSDNAKNTVYLQINSLKPEDTAVYYCAPDEYSPADSRTRYDYWGQGTQVSVSS” here?
Answer: low polyreactivity

Question: For “QVQLVESGGGLVQAGGSLRLIFAASGSIFPDYAMGWYITAPGKERELVAAISRSGGRTSYADSVKGRFTISRDNAKNTVFLQMNSLKPEDTAVYYCNVASRQGSTYDYWGQGTQVTVSS”, which “polyreactivity (PSR sort gate)” value is on record?
Answer: high polyreactivity

Question: For “QVQLVESGGGLVQAGGSLRLISAASGFTFAWYTMGWYRQAPGKERELVAAITDSGDSTYYADSVKGRFTISRDNAKNTVYLQMNSLKPEDTAVYYCATRSWYWDIWITEYDYWGQGTQVTVSS”, which “polyreactivity (PSR sort gate)” value is on record?
Answer: low polyreactivity

Question: With “QVQLVESGGGLVQAGGSLRLISAASGITFDPYAMGWYRQAPGKEREFVAAITRRSASTYYADSVKGRFTISRDNAKNTVYLQMNSLKPEDTALYYCAARGKVPYNYWGQGTQVTVSS” as the sequence, how does the “polyreactivity (PSR sort gate)” value read?
Answer: high polyreactivity

Question: With “QVQLVESGGGLVQAGGSLRLISAASVRTFAPYPRGWYREAPGKDRELVAAISSGGGNTYYADSVKGRFTISRDHPKNTVYLLMNSLKPEDTAGYYCNAAQRRGGLGYWGQGTQVTVSS” as the sequence, how does the “polyreactivity (PSR sort gate)” value read?
Answer: high polyreactivity

Question: For “QVQLVESGGGLVQAGGSLRLNCAASGITFSANAMGWYRQATGKERELVASNRSSGGSTYYADSVKGRFTISRDNEKKTVYLQMNSLKPEDTAVYSRNARLGPLYVYRQYDSWGQGTQVTVSS”, which “polyreactivity (PSR sort gate)” value is on record?
Answer: low polyreactivity

Question: With “QVQLVESGGGLVQAGGSLRLNCAASGRIFDVNAMGWYRQAPGKERELVAAITYSDGSTYYADSLKGRFTISRDTAKNTVYLQMNSLKPEDTAVYYCAATHEPVTPQPYGYWGQGTQVTVSS” as the sequence, how does the “polyreactivity (PSR sort gate)” value read?
Answer: low polyreactivity

Question: Which “polyreactivity (PSR sort gate)” value does the source give for “QVQLVESGGGLVQAGGSLRLNCAASGRISTYYVMGWYRQAPGKERELVAAINWSDGSTYYADSVKGRFTISRDNAKNTVYFQMNSLKPEDTAVYYCNVDAGVEGGTVDYWGQGTQVTVSS” here?
Answer: low polyreactivity

Question: Which “polyreactivity (PSR sort gate)” value does the source give for “QVQLVESGGGLVQAGGSLRLNCAASGRNLPFYAMGWYRQAPGKERDLVATISWTSDSTYYADSVKGRFTISRDNPKNTVFLQMNSLIREVTGVYYCASVYTYTYASTVIYDHWGQGTQVTVSS” here?
Answer: low polyreactivity

Question: Which “polyreactivity (PSR sort gate)” value does the source give for “QVQLVESGGGLVQAGGSLRLNCAASGSTLARYAMGWYRQAPGKERELVAAITWSGVSTYYADSVKGRFTISRDNAKNTVYLQMISLKPEDTAVYYCNARIFRSPNPYDYWGEGTQVTVSS” here?
Answer: high polyreactivity

Question: With “QVQLVESGGGLVQAGGSLRLRCAASARTFRDYAMGCYRQATGKERELVAVIDSGGGTDYADSVKGRFTISRDNAKNTVYLQMNSLKPEDTAVYYCAADSSVRYRDTEDYWGQGTQVTVSS” as the sequence, how does the “polyreactivity (PSR sort gate)” value read?
Answer: low polyreactivity

Question: Which “polyreactivity (PSR sort gate)” value does the source give for “QVQLVESGGGLVQAGGSLRLRCAASGFIFRLYAMGWYIQAPGKERELVASITQGGSTYYADSVKGRFTISRDNAKNTVYLLMNSLKPEDTAVNDCAATYLHVYRRRFYYWGQGTQVSVSS” here?
Answer: high polyreactivity

Question: Which “polyreactivity (PSR sort gate)” value does the source give for “QVQLVESGGGLVQAGGSLRLRCAASGFIFSYYAMGWYRQAPGKERELVAGISYNGNRTYYADSVEGRFTISRDNAKNTVYLQMNSLKPEDTAVYYCNVVCVLGGWYDLEYDYWGQGTQVTVSS” here?
Answer: high polyreactivity

Question: With “QVQLVESGGGLVQAGGSLRLRCAASGFTYSYYAMGWYRQAPGKERELVAAINSGGSTYYADSVKGRFTISRDNAKNTVFLLMNSLKPEDTAVYYCAAVYSPGRGYGYIYYYWGQGSQVTVSS” as the sequence, how does the “polyreactivity (PSR sort gate)” value read?
Answer: high polyreactivity

Question: For “QVQLVESGGGLVQAGGSLRLRCAASGGIFGRYAMGWYRQAPGKERELVAAISKRGGSTYYADSVKGRFTISRDNAKNTVYLLMNSLKPEDTAVYYCNASQSVELGYDYLGQGTQVTVSS”, which “polyreactivity (PSR sort gate)” value is on record?
Answer: high polyreactivity

Question: For “QVQLVESGGGLVQAGGSLRLRCAASGGIFSIYAMGWYRQAPGKERELVAAISTSGGSTYYADSVKARFTISRDNAKNTVYLQMNSLKPEDTAVYYCNARSQQWWLSRYNYWGQGTQVTVSS”, which “polyreactivity (PSR sort gate)” value is on record?
Answer: high polyreactivity

Question: With “QVQLVESGGGLVQAGGSLRLRCAASGGIINWYAMGWYRQAQGKERELVAAISWRTTSTYYADSVKGRFTISRDTAKNTVYLQMNCLKPEDTAVYYCYASGEVLAAVVTYDYWGQGTQVTVSS” as the sequence, how does the “polyreactivity (PSR sort gate)” value read?
Answer: low polyreactivity

Question: For “QVQLVESGGGLVQAGGSLRLRCAASGLIFAEYAIGWYRQAPGKERELVARITSGGSTDYADSVKGRFTISRDNAKNTVYLQMNSLKPEDTAVYYCAARYYSQDKNASTASDFDYWGQGTQVTVSS”, which “polyreactivity (PSR sort gate)” value is on record?
Answer: low polyreactivity

Question: Which “polyreactivity (PSR sort gate)” value does the source give for “QVQLVESGGGLVQAGGSLRLRCAASGNIFGIYTMAWYRQAPGKESDFVAVISLSGTSTYYADSVKGRFTISRDNAKNTVYLQMNSLKPEDTAVYYCNARTPHNKGRRRAYDYWGQGTEVTVSS” here?
Answer: high polyreactivity

Question: Which “polyreactivity (PSR sort gate)” value does the source give for “QVQLVESGGGLVQAGGSLRLRCAASGRIFGVYVMGWYRQAPGKESEFVAAISWSGSHTYYADSVKGRFTISRYNAKNTVYLQMNSLKPEDTAVYYCNADSYPDYTGPGLDWYDFWGQGTQVTVSS” here?
Answer: low polyreactivity

Question: With “QVQLVESGGGLVQAGGSLRLRCAASGRIFPYYAMGWYRQSPGKERELVAAIRWSGGDTYYADSVKGRFTISRDNAKNTVYLQMNSLKPEDTAVYYCAAKAYSYSRWGYYGYYYWGQGTQVTVSS” as the sequence, how does the “polyreactivity (PSR sort gate)” value read?
Answer: high polyreactivity

Question: For “QVQLVESGGGLVQAGGSLRLRCAASGRIIFRNAMVWYRQAHGKERELVAAITRGGGSTYYADSVKGRFTISRDNAKNTVYLQMNSLKPEDTAVYYCAAGACYSLYSAYDYWGQGTQVTVSS”, which “polyreactivity (PSR sort gate)” value is on record?
Answer: low polyreactivity

Question: Which “polyreactivity (PSR sort gate)” value does the source give for “QVQLVESGGGLVQAGGSLRLRCAASGRIQPGNAMGWYRQATGKERELVAAISSGGRTNYADSVKGRFTISRDIAKITVYLQMNSLKPEDTAVYYCAKRTVWWSIWHYYPPTYNYWGQGTQVTVSS” here?
Answer: high polyreactivity

Question: With “QVQLVESGGGLVQAGGSLRLRCAASGRTFPSYTMGWYRQAPGKERELVAAITWTGGSTYYADSVKGRFTISRDNAKNTVYLQMNSLKPEDTAVYYCADYDYWGQGTQVTVSS” as the sequence, how does the “polyreactivity (PSR sort gate)” value read?
Answer: low polyreactivity

Question: For “QVQLVESGGGLVQAGGSLRLRCAASGRTFRVYAMGWYRQAPGKERELVATITSSGGSTYYADSVKGRFTISRDNAKNTVYLQMNSLKPEDTAVYYCNVSVYNNYDSSYYYWGQGTQVTVSS”, which “polyreactivity (PSR sort gate)” value is on record?
Answer: low polyreactivity

Question: Which “polyreactivity (PSR sort gate)” value does the source give for “QVQLVESGGGLVQAGGSLRLRCAASGRTFSAYAMGWYRQAPGKERELVAAISRRGGSTYYADSVKWRFTISRDNAKNTVYFQMNSLKPSDTAVYYCAADVYKQYGFYYWGQVTQVTVSS” here?
Answer: high polyreactivity

Question: With “QVQLVESGGGLVQAGGSLRLRCAASGRTFSSYDKAWYRPAPGKERELVAAITKSGGSTYYADSVKGRFTLSRDKAKNTVYLQMNSLKPDDTAVYYCGYQYYYWGQGTQVTVSS” as the sequence, how does the “polyreactivity (PSR sort gate)” value read?
Answer: high polyreactivity

Question: With “QVQLVESGGGLVQAGGSLRLRCAASGRTFYKNTMGWYRQAPGKERELVATISQRGGATYYADSVKGRFTISRDNAKNTVYLQMTSLKPEDTAVYYCNARKYTQSIHYDYWGQGTQVTVSS” as the sequence, how does the “polyreactivity (PSR sort gate)” value read?
Answer: high polyreactivity

Question: Which “polyreactivity (PSR sort gate)” value does the source give for “QVQLVESGGGLVQAGGSLRLRCAASGRTFYVYAMGWYRQAPGKERELVATNNTGGSTYYADSVKGRFTISRDNAKNTVYLQMNSLKPEDTAVYYCAARYNPYYIRFGFDKSFYYWGQGTQVTVSS” here?
Answer: low polyreactivity

Question: With “QVQLVESGGGLVQAGGSLRLRCAASGRTLWLYTMGWYRQAPGKERELVARIRSGGSTYYADSVKGRFTISRDNAKNTVYLQMNSLKPEDTAVYYCAAYPYWIHYENYYWGQGTQVTVSS” as the sequence, how does the “polyreactivity (PSR sort gate)” value read?
Answer: high polyreactivity

Question: Which “polyreactivity (PSR sort gate)” value does the source give for “QVQLVESGGGLVQAGGSLRLRCAASGRTNAYYNMGRYRQAPGKERELVAAISKSGGSTYYADSVKGRFTISRDNAKNTVYLQMNSLKPEDTAVYYCAKRRSGNVRKYDYWGQGTQVTVSS” here?
Answer: high polyreactivity
